Results as given in IntAct's records for PubMed 23615222.

B1: Thioredoxin H1 (Arabidopsis thaliana (Mouse-ear cress)), P29448 (parent)
chain: MASEEGQVIACHTVETWNEQLQKANESKTLVVVDFTASWCGPCRFIAPFFADLAKKLPNVLFLKVDTDELKSVASDWAIQAMPTFMFLKEGKILDKVVGAKKDELQSTIAKHLA

Variants of: B1
Conditions: with cdpkl_arath CPK21, Q9ZSA2
cdpkl_arath CPK21, Q9ZSA2, sequence (Q9ZSA2 whole entry): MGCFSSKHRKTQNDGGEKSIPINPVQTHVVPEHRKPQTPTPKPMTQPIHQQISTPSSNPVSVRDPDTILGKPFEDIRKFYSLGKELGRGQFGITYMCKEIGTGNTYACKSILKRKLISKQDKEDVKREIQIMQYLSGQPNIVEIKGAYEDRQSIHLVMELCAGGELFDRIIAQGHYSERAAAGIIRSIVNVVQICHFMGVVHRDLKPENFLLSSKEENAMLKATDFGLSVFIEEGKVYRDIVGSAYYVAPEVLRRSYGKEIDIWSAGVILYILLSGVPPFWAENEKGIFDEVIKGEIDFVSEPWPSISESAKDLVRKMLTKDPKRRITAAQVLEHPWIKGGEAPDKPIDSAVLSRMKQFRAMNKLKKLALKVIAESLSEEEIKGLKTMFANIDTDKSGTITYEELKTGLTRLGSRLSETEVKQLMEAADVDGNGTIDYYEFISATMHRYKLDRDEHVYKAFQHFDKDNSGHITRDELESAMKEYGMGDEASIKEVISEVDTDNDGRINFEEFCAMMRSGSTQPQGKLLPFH

Row | Variant | effect of a mutation on the interaction
1 | MASEEGQVIACHTVETWNEQLQKANESKTLVVVDFTASWCGPSRFIAPFFADLAKKLPNVLFLKVDTDELKSVASDWAIQAMPTFMFLKEGKILDKVVGAKKDELQSTIAKHLA [C43S] | increasing interaction
